For this series, the target named is SARS-CoV-2 nucleocapsid protein (N-protein) (SARS-CoV-2, UniProt P0DTC9 1-419). Description: SV-AUC.

Data on three molecules can be found in publication PMC8103780.

The term Kd denotes the equilibrium constant for the complex coming apart. A higher Kd goes with lower affinity.

For TTTTTTTTTT (ssDNA) [T10], the equilibrium dissociation constant (Kd) is < 100 nM.

Consider TTTTTT (ssDNA) [T6], for which the Kd came to 290 nM. That is a sub-micromolar value.

Turning to GTGT (ssDNA) [(GT)2], the Kd is > 10000 nM.
